Source: patent publication US11834499 (University of California, dated 2023)

What was measured:
[1] = target: T1, human Claudin-18.2 (CLDN18.2) (human); test: FACS, 1.5 ug antibody, HUPT4 cells (endogenous CLDN18.2)
T1 construct: On cells: fused to GFP in engineered HEK293T cells (clone C12), endogenous in HUPT4 and SNU601 cells; also called human CLDN18.2
Method: FACS assays were carried out to determine relative antigen binding strengths of the humanized antibodies (at either 1.5 μg or 0.3 μg) for binding to CLDN18.2 as expressed by the indicated cancer cell lines.

[2] = target: T1, human Claudin-18.2 (CLDN18.2); test: FACS, 1.5 ug antibody, HEK293T-CLDN18.2 C12 clone cells

B1: HuAb307-1 (antibody, V domains shown)
VH: EVQLLESGGGLVQPGGSLRLSCAASGFTFSSYTMSWVRQAPGKGLEWVATIIIGGSYTYYADSVKGRFTISRDNSKNTLYLQMNSLRAEDTAVYYCTRLVKGNAMDYWGQGTLVTVSS
VL: DIVMTQSPDSLAVSLGERATINCKSSQSLLNSGNQKNYLSWYQQKPGQPPKLLIYWASTRESGVPDRFSGSGSGTDFTLTISSLQAEDVAVYYCQNDYSYPFTFGQGTKLEIK
- FACS signal (relative antigen binding strength) [1]: 30200
- FACS signal (relative antigen binding strength) [2]: 126000

B2: HuAb432-1 (antibody, V domains shown)
VH: QVQLVQSGAEVKKPGSSVKVSCKASGYTFTSDVISWVRQAPGQGLEWMGESYLRNGNTYYAQKFQGRVTITADKSTSTAYMELSSLRSEDTAVYYCARSYYGNSFAYWGQGTLVTVSS
VL: DIVMTQSPDSLAVSLGERATINCKSTQSLLNSGNQKNYLTWYQQKPGQPPKLLIYWASTRESGVPDRFSGSGSGTDFTLTISSLQAEDVAVYYCQNAYYYPFTFGQGTKLEIK
- FACS signal (relative antigen binding strength) [1]: 30600
- FACS signal (relative antigen binding strength) [2]: 97400

B3: HuAb358-2 (antibody, V domains shown)
VH: EVQLVESGGGLVQPGGSLRLSCAVSGFTFSSFGMHWVRQAPGKGLEWVAYISSGTTNIYYADSVKGRFTVSRDNAKNSLYLQMNSLRAEDTAVYYCVRSGYYGNSLDYWGQGTLVTVSS
VL: DIVMTQSPDSLAVSLGERVTMNCKSSQSLFNSGNQRNYLTWYQQKPGQPPKLLIYWASTRESGVPDRFSGSGSGTDFTLTISSVQAEDVAVYYCQNVYIYPLTFGQGTKLEIK
- FACS signal (relative antigen binding strength) [1]: 29800
- FACS signal (relative antigen binding strength) [2]: 122000

B4: HuAb432-4 (antibody, V domains shown)
VH: QVQLVQSGAEVKKPGSSVKLSCKASGYTFTSDVISWVRQAPGQGLEWIGESYLRNGNTYYAQKFQGRATLTADKSTSTAYMELSSLRSEDTAVYYCARSYYGNSFAYWGQGTLVTVSS
VL: DIVMTQSPDSLAVSLGERVTMNCKSTQSLLNSGNQKNYLTWYQQKPGQPPKLLIYWASTRESGVPDRFSGSGSGTDFTLTISSVQAEDVAVYYCQNAYYYPFTFGQGTKLEIK
- FACS signal (relative antigen binding strength) [1]: 23100
- FACS signal (relative antigen binding strength) [2]: 173000

B5: HuAb358-1 (antibody, V domains shown)
VH: EVQLVESGGGLVQPGGSLRLSCAVSGFTFSSFGMHWVRQAPGKGLEWVAYISSGTTNIYYADSVKGRFTVSRDNAKNSLYLQMNSLRAEDTAVYYCVRSGYYGNSLDYWGQGTLVTVSS
VL: DIVMTQSPDSLAVSLGERATINCKSSQSLFNSGNQRNYLTWYQQKPGQPPKLLIYWASTRESGVPDRFSGSGSGTDFTLTISSLQAEDVAVYYCQNVYIYPLTFGQGTKLEIK
- FACS signal (relative antigen binding strength) [1]: 52700
- FACS signal (relative antigen binding strength) [2]: 131000

B6: HuAb376-1 (antibody, V domains shown)
VH: EVQLLESGGGLVQPGGSLRLSCAASGFTFSSYTMSWVRQAPGKGLEWVATISSGVSYTYYADSVKGRFTISRDNSKNTLYLQMNSLRAEDTAVYYCTRLTKGNAMDYWGQGTLVTVSS
VL: DIVMTQSPDSLAVSLGERATINCKSSQSLLNSGNQKNYLTWYQQKPGQPPKLLIYWASTRESGVPDRFSGSGSGTDFTLTISSLQAEDVAVYYCQNDYSYPFTFGQGTKLEIK
- FACS signal (relative antigen binding strength) [1]: 29700
- FACS signal (relative antigen binding strength) [2]: 140000

B7: HuAb432-3 (antibody, V domains shown)
VH: QVQLVQSGAEVKKPGSSVKLSCKASGYTFTSDVISWVRQAPGQGLEWIGESYLRNGNTYYAQKFQGRATLTADKSTSTAYMELSSLRSEDTAVYYCARSYYGNSFAYWGQGTLVTVSS
VL: DIVMTQSPDSLAVSLGERATINCKSTQSLLNSGNQKNYLTWYQQKPGQPPKLLIYWASTRESGVPDRFSGSGSGTDFTLTISSLQAEDVAVYYCQNAYYYPFTFGQGTKLEIK
- FACS signal (relative antigen binding strength) [1]: 27100
- FACS signal (relative antigen binding strength) [2]: 88800

B8: HuAb307-2 (antibody, V domains shown)
VH: EVQLLESGGGLVQPGGSLRLSCAASGFTFSSYTMSWVRQAPGKGLEWVATIIIGGSYTYYADSVKGRFTISRDNSKNTLYLQMNSLRAEDTAVYYCTRLVKGNAMDYWGQGTLVTVSS
VL: DIVMTQSPDSLAVSLGERATINCKSSQSLLNSGNQKNYLSWYQQKPGQPPKLLFYWASTRESGVPDRFSGSGSGTDFTLTISSLQAEDVAVYYCQNDYSYPFTFGQGTKLEIK
- FACS signal (relative antigen binding strength) [1]: 32500
- FACS signal (relative antigen binding strength) [2]: 133000

B9: HuAb432-2 (antibody, V domains shown)
VH: QVQLVQSGAEVKKPGSSVKVSCKASGYTFTSDVISWVRQAPGQGLEWMGESYLRNGNTYYAQKFQGRVTITADKSTSTAYMELSSLRSEDTAVYYCARSYYGNSFAYWGQGTLVTVSS
VL: DIVMTQSPDSLAVSLGERVTMNCKSTQSLLNSGNQKNYLTWYQQKPGQPPKLLIYWASTRESGVPDRFSGSGSGTDFTLTISSVQAEDVAVYYCQNAYYYPFTFGQGTKLEIK
- FACS signal (relative antigen binding strength) [1]: 36100
- FACS signal (relative antigen binding strength) [2]: 128000

B10: HuAb376-2 (antibody, V domains shown)
VH: EVQLLESGGGLVQPGGSLRLSCAASGFTFSSYTMSWVRQAPGKGLEWVATISSGVSYTYYADSVKGRFTISRDNSKNTLYLQMNSLRAEDTAVYYCTRLTKGNAMDYWGQGTLVTVSS
VL: DIVMTQSPDSLAVSLGERVTMNCKSSQSLLNSGNQKNYLTWYQQKPGQPPKLLIYWASTRESGVPDRFSGSGSGTDFTLTISSVQAEDVAVYYCQNDYSYPFTFGQGTKLEIK
- FACS signal (relative antigen binding strength) [1]: 28300
- FACS signal (relative antigen binding strength) [2]: 119000

B11: Ab 307 (antibody, V domains shown)
VH: DVKLVESGGGLVKPGGSLKLSCAASGFTFSSYTMSWVRQTPEKRLEWVATIIIGGSYTYYPDSVKGRFTISRDNAKNTLYLQMSSLKSEDTAMYYCTRLVKGNAMDYWGQGTSVAVSS
VL: DIVMTQSPSSLTVTTGEKVTMSCKSSQSLLNSGNQKNYLSWYQQIPGQPPKLLFYWASTRESGVPDRFTGSGSGTDFTLTISNVQAEDLAVYYCQNDYSYPFTFGAGTKLELR
- FACS signal (relative antigen binding strength) [1]: 34700
- FACS signal (relative antigen binding strength) [2]: 141000

B12: Ab 358 (antibody, V domains shown)
VH: VVQLVESGGDFVQPGGSRKLSCAVSGFTFSSFGMHWVRQAPEKGLEWVAYISSGTTNIYYADTVKGRFTVSRDNPKNSLFLHMTSLRSEDTAMYYCVRSGYYGNSLDYWGQGTPLTVSS
VL: DIVMTQSPSSLTVTAGEKVTMSCKSSQSLFNSGNQRNYLTWYQQKPGQPPKLLIYWASTRESGVPDRFTGSGSGTGFTLTISSVQAEDLAFYYCQNVYIYPLTFGLGTKLELR
- FACS signal (relative antigen binding strength) [1]: 33300
- FACS signal (relative antigen binding strength) [2]: 139000

B13: Ab 432 (antibody, V domains shown)
VH: QIQLQQSGAELARPRASVKLSCKASGYTFTSDVISWVKQRPGQGLEWIGESYLRNGNTYYNENFKGKATLTADKSSSTAYMELRSLTSEDSAVYFCARSYYGNSFAYWGQGTLVTVSA
VL: DIVMTQSPSSLTVTAREKVTMNCKSTQSLLNSGNQKNYLTWYQQKPGQPPKLLIYWASTRESGVPDRFTGSGSGTDFTLTISSVQAEDLAVYYCQNAYYYPFTFGGGTKLEIK
notes: also called 432-Chim
- FACS signal (relative antigen binding strength) [1]: 27900
- FACS signal (relative antigen binding strength) [2]: 161000

B14: Zolbetuximab (Benchmark 3) (antibody, V domains shown)
VH: QVQLQQPGAELVRPGASVKLSCKASGYTFTSYWINWVKQRPGQGLEWIGNIYPSDSYTNYNQKFKDKATLTVDKSSSTAYMQLSSPTSEDSAVYYCTRSWRGNSFDYWGQGTTLTVSS
VL: DIVMTQSPSSLTVTAGEKVTMSCKSSQSLLNSGNQKNYLTWYQQKPGQPPKLLIYWASTRESGVPDRFTGSGSGTDFTLTISSVQAEDLAVYYCQNDYSYPFTFGSGTKLEIK
notes: also called zoletuximab
- FACS signal (relative antigen binding strength) [1]: 10600
- FACS signal (relative antigen binding strength) [2]: 109000
